Assay results as given in patent EP4556028A1.

Biological target: spike protein of SARS-CoV-2 clinical isolate HH01 (Wuhan-like), on live virus (SARS-CoV-2 (Wuhan-like HH01)) (UniProt P0DTC2)
Assay: cell-based or functional assay

| Substance | IC50, inhibition of SARS-CoV-2 HH01 replication on Calu-3 cells | IC90, inhibition of SARS-CoV-2 HH01 replication on Calu-3 cells |
| --- | --- | --- |
| recombinant minibinder LCB1 with N- and C-terminal Ser/Gly extensions and C-terminal Cys (designed binder) | 10 to 100 nM |  |
| virus-binding conjugate P: PLGA-PEG-Mal / PLGA (1:1) particle loaded with LCB1 | 4.86 µg/mL | 4.99 µg/mL |
| virus-binding conjugate S: PLGA-only particle incubated with LCB1 (control, adsorbed minibinder) | 1 to 10 µg/mL |  |
